Here are results for 1 molecule from paper PMC1977788 (1992).

Assay [1] has as its target T1, EGFR (Homo sapiens, UniProt P00533). Nature of the assay: 125I-EGF whole-cell saturation binding, ZR-PR-LT cells, Woolf analysis.
Assay [2] has as its target T1, EGFR. Nature of the assay: 125I-EGF whole-cell saturation binding, ZR-PR-LT cells + acid wash, Woolf analysis.
For assay [3], the target named is T1, EGFR. Put plainly: 125I-EGF whole-cell saturation binding, ZR-PR-LT cells + suramin pretreatment, Woolf analysis.
Assay [4] addresses T1, EGFR. Put plainly: 125I-EGF whole-cell saturation binding, ZR-75-9a1 FCSdcc 4 weeks, Woolf analysis.
For assay [5], the target named is T1, EGFR. Put plainly: 125I-EGF whole-cell saturation binding, ZR-75-9a1 FCSdcc 2 weeks, Woolf analysis.
Assay [6] deals with T1, EGFR. Put plainly: 125I-EGF whole-cell saturation binding, ZR-75-1 cells, Woolf analysis.
In assay [7] the target is T1, EGFR. Nature of the assay: 125I-EGF whole-cell saturation binding, ZR-75-9a1 8 uM cells, Woolf analysis.
Assay [8] has as its target T1, EGFR. Put plainly: 125I-EGF whole-cell saturation binding, ZR-75-9a1 FCSdcc 2 years, Woolf analysis.
The target of assay [9] is T1, EGFR. Nature of the assay: 125I-EGF whole-cell saturation binding, ZR-75-9a1 FCSdcc 1 week, Woolf analysis.

B1: EGF (protein)
chain: NSYPGCPSSYDGYCLNGGVCMHIESLDSYTCNCVIGYSGDRCQTRDLRWWELR
Regarding B1, the Kd with EGFR [1] came to 0.26 nM; with EGFR [2], 0.21 nM; with EGFR [3], 0.31 nM; with EGFR [4] it was 0.14 nM; in the assay with EGFR [5], 0.28 nM; with EGFR [6], 0.23 nM. Further, the equilibrium dissociation constant (Kd) stood at 0.19 nM with EGFR [7], 0.18 nM in the assay with EGFR [8] and 0.37 nM in the assay with EGFR [9].
